Measured values: patent publication US20260232827A1 (Zymeworks, published 2026)

T1: Construct 6 (human NaPi2b del 317-333) (human, UniProt O95436 1-690)
T1 construct: also called CL_#29919
T1 sequence: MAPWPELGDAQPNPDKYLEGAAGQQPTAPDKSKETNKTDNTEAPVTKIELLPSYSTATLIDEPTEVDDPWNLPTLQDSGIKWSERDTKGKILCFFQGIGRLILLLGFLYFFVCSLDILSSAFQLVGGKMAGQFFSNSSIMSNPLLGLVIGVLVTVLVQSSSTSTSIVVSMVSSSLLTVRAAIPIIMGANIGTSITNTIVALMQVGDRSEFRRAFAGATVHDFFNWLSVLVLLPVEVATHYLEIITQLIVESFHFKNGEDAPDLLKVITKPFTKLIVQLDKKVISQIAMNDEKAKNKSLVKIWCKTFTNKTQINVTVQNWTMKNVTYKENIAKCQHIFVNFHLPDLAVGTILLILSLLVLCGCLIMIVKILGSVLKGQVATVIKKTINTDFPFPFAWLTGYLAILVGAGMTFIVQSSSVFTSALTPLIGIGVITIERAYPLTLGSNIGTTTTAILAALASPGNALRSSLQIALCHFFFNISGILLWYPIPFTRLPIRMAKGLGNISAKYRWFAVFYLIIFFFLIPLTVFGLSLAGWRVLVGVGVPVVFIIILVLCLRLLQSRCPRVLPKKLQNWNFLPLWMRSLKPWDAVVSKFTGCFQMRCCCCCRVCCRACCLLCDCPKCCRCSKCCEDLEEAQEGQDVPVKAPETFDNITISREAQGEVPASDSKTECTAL

T2: Full length human NaPi2b (sodium-dependent phosphate transporter 2B, SLC34A2) (human, UniProt O95436 1-690)
T2 construct: also called huNaPi2b; CL_#13432
T2 sequence: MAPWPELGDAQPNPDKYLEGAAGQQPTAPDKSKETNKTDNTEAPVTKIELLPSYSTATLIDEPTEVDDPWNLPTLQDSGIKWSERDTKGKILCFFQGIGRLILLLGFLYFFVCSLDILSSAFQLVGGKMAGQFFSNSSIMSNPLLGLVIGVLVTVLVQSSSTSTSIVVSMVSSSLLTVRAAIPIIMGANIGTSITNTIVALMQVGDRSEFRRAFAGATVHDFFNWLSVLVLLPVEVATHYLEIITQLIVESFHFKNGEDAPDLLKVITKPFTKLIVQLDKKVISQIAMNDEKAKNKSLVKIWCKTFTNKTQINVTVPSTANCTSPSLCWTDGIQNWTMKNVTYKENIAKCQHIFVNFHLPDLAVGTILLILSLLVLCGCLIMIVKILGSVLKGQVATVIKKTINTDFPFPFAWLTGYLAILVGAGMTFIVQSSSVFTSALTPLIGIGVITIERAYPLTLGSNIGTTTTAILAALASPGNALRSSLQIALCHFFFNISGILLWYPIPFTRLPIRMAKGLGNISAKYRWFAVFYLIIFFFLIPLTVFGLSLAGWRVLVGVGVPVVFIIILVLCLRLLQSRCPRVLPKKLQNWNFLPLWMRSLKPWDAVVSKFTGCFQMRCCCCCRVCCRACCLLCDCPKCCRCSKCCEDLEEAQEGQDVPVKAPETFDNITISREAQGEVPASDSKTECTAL

T3: Construct 7 (human NaPi2b del 317-326) (human, UniProt O95436 1-690)
T3 construct: also called CL_#29921
T3 sequence: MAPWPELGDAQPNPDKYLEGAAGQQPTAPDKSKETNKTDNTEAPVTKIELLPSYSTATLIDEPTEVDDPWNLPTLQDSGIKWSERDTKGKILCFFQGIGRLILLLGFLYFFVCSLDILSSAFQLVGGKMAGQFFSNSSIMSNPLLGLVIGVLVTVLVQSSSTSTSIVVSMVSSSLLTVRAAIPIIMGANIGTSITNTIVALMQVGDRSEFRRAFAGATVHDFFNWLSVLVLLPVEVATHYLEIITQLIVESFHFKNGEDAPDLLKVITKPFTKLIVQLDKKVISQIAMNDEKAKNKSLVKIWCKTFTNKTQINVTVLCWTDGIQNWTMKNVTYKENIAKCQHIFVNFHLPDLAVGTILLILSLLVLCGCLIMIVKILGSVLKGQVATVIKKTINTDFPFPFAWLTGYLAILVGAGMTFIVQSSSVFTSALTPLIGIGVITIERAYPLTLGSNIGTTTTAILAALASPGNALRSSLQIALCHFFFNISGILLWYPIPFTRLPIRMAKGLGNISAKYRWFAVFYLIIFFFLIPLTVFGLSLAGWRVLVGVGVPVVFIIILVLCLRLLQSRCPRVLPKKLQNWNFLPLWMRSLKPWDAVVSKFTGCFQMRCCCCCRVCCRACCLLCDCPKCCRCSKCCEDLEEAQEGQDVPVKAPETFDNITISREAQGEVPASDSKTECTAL

B1: lifastuzumab (v18993), reference anti-NaPi2b antibody (antibody, human IgG1, kappa)
heavy 1: GEVQLVESGGGLVQPGGSLRLSCAASGFSFSDFAMSWVRQAPGKGLEWVATIGRVAFHTYYPDSMKGRFTISRDNSKNTLYLQMNSLRAEDTAVYYCARHRGFDVGHFDFWGQGTLVTVSSASTKGPSVFPLAPSSKSTSGGTAALGCLVKDYFPEPVTVSWNSGALTSGVHTFPAVLQSSGLYSLSSVVTVPSSSLGTQTYICNVNHKPSNTKVDKKVEPKSCDKTHTCPPCPAPELLGGPSVFLFPPKPKDTLMISRTPEVTCVVVDVSHEDPEVKFNWYVDGVEVHNAKTKPREEQYNSTYRVVSVLTVLHQDWLNGKEYKCKVSNKALPAPIEKTISKAKGQPREPQVYVYPPSRDELTKNQVSLTCLVKGFYPSDIAVEWESNGQPENNYKTTPPVLDSDGSFALVSKLTVDKSRWQQGNVFSCSVMHEALHNHYTQKSLSLSPG
heavy 2: not shown
light: GDIQMTQSPSSLSASVGDRVTITCRSSETLVHSSGNTYLEWYQQKPGKAPKLLIYRVSNRFSGVPSRFSGSGSGTDFTLTISSLQPEDFATYYCFQGSFNPLTFGQGTKVEIKRTVAAPSVFIFPPSDEQLKSGTASVVCLLNNFYPREAKVQWKVDNALQSGNSQESVTEQDSKDSTYSLSSTLTLSKADYEKHKVYACEVTHQGLSSPVTKSFNRGEC
B2: palivizumab (v21995), anti-RSV antibody, negative control (antibody, human IgG1, kappa, V domains shown)
VH: QVTLRESGPALVKPTQTLTLTCTFSGFSLSTSGMSVGWIRQPPGKALEWLADIWWDDKKDYNPSLKSRLTISKDTSKNQVVLKVTNMDPADTATYYCARSMITNWYFDVWGAGTTVTVSS
VL: DIQMTQSPSTLSASVGDRVTITCKSQLSVGYMHWYQQKPGKAPKLLIYDTSKLASGVPSRFSGSGSGTEFTLTISSLQPDDFATYYCFQGSGYPFTFGGGTKLEIKR

Assays:
Assay in all cases: flow cytometry, transfected HEK293-6e cells, antibody 2 nM;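 further: transfected cells exposed to test antibody 24 h at 4 °C to block internalization, at least 1,000 events per well, background is mean MFI of unstained cells lacking primary antibody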
[1] = molecular target: T4, Construct 2 (chimeric human NaPi2b, swap in NaPi2c in 280-301) (human)
T4 construct: also called CL_#29915

[2] = molecular target: T5, Construct 5 (chimeric human NaPi2b, swap in NaPi2a in 304-348) (human)
T5 construct: also called CL_#13436

[3] = molecular target: T1, Construct 6 (human NaPi2b del 317-333)
[4] = molecular target: T6, Construct 3 (chimeric human NaPi2b, swap in NaPi2c in 304-321) (human)
T6 construct: also called CL_#29916

[5] = molecular target: T7, Construct 4 (chimeric human NaPi2b, swap in NaPi2c in 341-358) (human)
T7 construct: also called CL_#13435

[6] = molecular target: T2, Full length human NaPi2b …
[7] = molecular target: T3, Construct 7 (human NaPi2b del 317-326)
[8] = molecular target: T8, Construct 1 (chimeric human NaPi2b, swap in NaPi2c in 239-259) (human)
T8 construct: also called CL_#29914

Binder | Background-Subtracted AF647 Mean Fluorescence Intensity [1] [MFI] | Background-Subtracted AF647 Mean Fluorescence Intensity [2] [MFI] | Background-Subtracted AF647 Mean Fluorescence Intensity [3] [MFI] | Background-Subtracted AF647 Mean Fluorescence Intensity [4] [MFI] | Background-Subtracted AF647 Mean Fluorescence Intensity [5] [MFI] | Background-Subtracted AF647 Mean Fluorescence Intensity [6] [MFI] | Background-Subtracted AF647 Mean Fluorescence Intensity [7] [MFI] | Background-Subtracted AF647 Mean Fluorescence Intensity [8] [MFI]
B1 | 473 | 25 | -91 | 609 | 726 | 1040 | 56 | 1230
B2 | -69 | -2 | 11 | 19 | 1 | -22 | -34 | -30
